We go through ten molecules from publication doi:10.1101/2023.10.08.561411, “Semi-synthetic nanobody-ligand conjugates exhibit tunable signaling properties and enhanced transcriptional outputs at neurokinin receptor-1” (bioRxiv, 2023).

Ends that are not written are not given here.

The target of test [1] is epitope-tagged neurokinin-1 receptor (NK1R) with three epitope tags (alfa, 6e, BC2) inserted into the extracellular N-terminus (UniProt P25103).
Test [2] has the same target. This is another data set of the same source.
For test [3] the target is unchanged. This is another data set of the same source.
The target is the same in test [4]. The source holds these as a separate data set.
The target in test [5] is T1, neurokinin-1 receptor wild-type, lacking epitope tags (Homo sapiens, UniProt P25103).
T1 construct: also called NK1R WT; NK1R wild-type; source: HEK293, stably transfected clonal line, on live cells
The experiment in a line: flow cytometry on cells; live HEK293 cells expressing the receptor, on ice 20 min in PBS with 2% BSA with biotin-functionalized nanobodies (0.1 pM – 1 μM); detected with APC-streptavidin; median fluorescence intensity. The following applies: one partner purified. (Flow cytometry measures light scatter and fluorescence of single cells or particles in a stream.)

T1 sequence (P25103 whole entry): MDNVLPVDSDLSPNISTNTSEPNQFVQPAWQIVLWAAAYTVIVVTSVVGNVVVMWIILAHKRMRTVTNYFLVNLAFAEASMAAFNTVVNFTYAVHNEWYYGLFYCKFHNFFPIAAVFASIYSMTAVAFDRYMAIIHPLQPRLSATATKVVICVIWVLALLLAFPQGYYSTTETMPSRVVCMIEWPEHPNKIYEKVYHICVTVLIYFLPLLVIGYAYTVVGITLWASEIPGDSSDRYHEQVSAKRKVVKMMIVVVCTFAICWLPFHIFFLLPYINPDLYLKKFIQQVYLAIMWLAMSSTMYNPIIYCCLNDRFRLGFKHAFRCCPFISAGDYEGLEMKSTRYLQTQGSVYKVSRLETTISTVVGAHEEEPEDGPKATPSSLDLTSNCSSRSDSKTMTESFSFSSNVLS

Take “SP_(6–11), truncated version of Substance P (peptide)”: the signaling through the Gq pathway (TRUPATH BRET), EC50 in test [1] came to 27.5 nM.
As to Nb_(alfa)-NKA conjugate, the Gs-mediated transcription (luciferase reporter, 35 nM, 17 hours), fold against NKA in test [2] was over 5 fold. This molecule also returned a Gq activation (TRUPATH BRET), full efficacy; reduction in potency (EC50) relative to the comparator peptide in test [3] of under 6 fold. The Gq-mediated transcriptional output (luciferase reporter, 35 nM, 17 hours), fold against G3NKA in test [4] was over 2 fold.
In test [3], “NbGFP-SP_(6–11) conjugate (negative control)” yielded a Gq activation (TRUPATH BRET), full efficacy; reduction in potency (EC50) relative to the comparator peptide G3SP (6–11) of over 60 fold and a Gq activation (TRUPATH BRET); difference in EC50 relative to SP (6–11) of under 4 fold.
In test [3], Nb_(alfa)-SP_(6–11) conjugate displayed a Gq activation (TRUPATH BRET), full efficacy; reduction in potency (EC50) relative to the comparator peptide G3SP (6–11) of over 60 fold and a Gq activation (TRUPATH BRET); difference in EC50 relative to SP (6–11) of under 4 fold.
On to NbGFP-NKA conjugate (negative control), for which, in test [3], the Gq activation (TRUPATH BRET), full efficacy; reduction in potency (EC50) relative to the comparator peptide is under 6 fold.

B1: NbGFP, biotin-labeled (negative control nanobody that targets GFP) (VHH)
VHH: QVQLQESGGALVQPGGSLRLSCAASGFPVNRYSMRWYRQAPGKEREWVAGMSSAGDRSSYEDSVKGRFTISRDDARNTVYLQMNSLKPEDTAVYYCNVNVGFEYWGQGTQVTVSS
notes: nanobody NbGFP against GFP; sortase A recognition motif at the C-terminus (LPETGG in the methods); if by sortagging, the His tag would be lost; source: E. coli BL21(DE3), purified (nickel-NTA, size exclusion chromatography)
As for B1, the binding result in test [5] is reported as “no binding (tested: 1 μM)”.

B2: Nb6e, biotin-labeled (VHH)
VHH: QVQLQESGGGLVQPGGSLRLSCAASGFVFENSAMAWYRQAPGKERELIAVIGTTFIKLAESVKGRFTISRDNAKSTVYLQMNNLKPEDTAVYYCSKSGAYWGQGTQVTVSS
notes: sortase A recognition motif at the C-terminus (LPETGG in the methods); if by sortagging, the His tag would be lost; source: E. coli BL21(DE3), purified (nickel-NTA, size exclusion chromatography)
As for B2, in test [5], the binding result is “no binding (tested: 1 μM)”.

B3: NbBC2, biotin-labeled (VHH)
VHH: QVQLVESGGGLVQPGGSLTLSCTASGFTLDHYDIGWFRQAPGKEREGVSCINNSDDDTYYADSVKGRFTIFMNNAKDTVYLQMNSLKPEDTAIYYCAEARGCKRGRYEYDFWGQGTQVTVSS
notes: as for B2
Regarding B3, the binding result in test [5] is “no binding (tested: 1 μM)”.

B4: Nb_(alfa), biotin-labeled (VHH)
VHH: EVQLQESGGGLVQPGGSLRLSCTASGVTISALNAMAMGWYRQAPGERRVMVAAVSERGNAMYRESVQGRFTVTRDFTNKMVSLQMDNLKPEDTAVYYCHVLEDRVDSFHDYWGQGTQVTVSS
notes: as for B2
Turning to B4, the binding result in test [5] is listed as “no binding (tested: 1 μM)”.

B5: G3SP_(6–11), SP_(6–11) with an N-terminal triglycine extension (peptide)
peptide: GGGQFFGLM-NH2
Turning to B5, the signaling through the Gq pathway (TRUPATH BRET), EC50 in test [1] amounted to 0.3 nM.
